Sequences and labels used below:
B1: Retinoblastoma-related protein 1 (Arabidopsis thaliana (Mouse-ear cress)), Q9LKZ3 (parent)
chain: MEEVQPPVTPPIEPNGKRSEASLLDICEKVLSLDGSTCDEALKLFTETKRILSASMSNIGSGTREEVERFWFAFILYSVKRLSVRKEADGLSVSGDNEFNLCQILRALKLNIVDFFKELPQFVVKAGSVLGELYGADWENRLQAKEVQANFVHLSLLSKYYKRGFREFFLTYDANAEKNSANSSTYLLDSYRFGWLLFLALRNHAFSRFKDLVTCSNGVVSILAILIIHVPCRFRNFSIQDSSRFVKKGDKGVDLVASLCKIYDASEDELRIVIDKANNLVETILKKKPSPASECQTDKLDNIDPDGLTYFEDLLEETSISTSLITLEKDYYDGKGELDERVFINEEDSLLGSGSLSAGAVNITGVKRKIDALSSPARTFISPLSPHKSPAAKTNGISGATKLAATPVSTAMTTAKWLRTVISPLLPKPSPGLEHFLKSCDRDITNDVTRRAHIILEAIFPNSSLGAQCGGGSLQAVDLMDDIWAEQRRLEACKLYYRVLEAMCKAEAQILHANNLNSLLTNERFHRCMLACSAELVLATHKTITMLFPAVLERTGITAFDLSKVIESFIRHEDSLPRELRRHLNSLEERLLESMVWEKGSSMYNSLIVARPSLALEINQLGLLAEPMPSLDAIAALINFSDGANHASSVQKHETCPGQNGGIRSPKRLCTDYRSILVERNSFTSPVKDRLLALGNVKSKMLPPPLQSAFASPTRPNPGGGGETCAETGINIFFTKINKLAAVRINGMVERLQLSQQIRESVYCFFQHVLAQRTSLLFSRHIDQIILCCFYGVAKISQMSLTFREIIYNYRKQPQCKPLVFRSVYVDALQCRRQGRIGPDHVDIITFYNEIFIPAVKPLLVELGPVRNDRAVEANNKPEGQCPGSPKVSVFPSVPDMSPKKVSAVHNVYVSPLRGSKMDALISHSTKSYYACVGESTHAYQSPSKDLSAINNRLNNSSSNRKRTLNFDAEAGMVSDSMVANSLNLQNQNQNQNGSDASSSGGAAPLKTEPTDS
partner: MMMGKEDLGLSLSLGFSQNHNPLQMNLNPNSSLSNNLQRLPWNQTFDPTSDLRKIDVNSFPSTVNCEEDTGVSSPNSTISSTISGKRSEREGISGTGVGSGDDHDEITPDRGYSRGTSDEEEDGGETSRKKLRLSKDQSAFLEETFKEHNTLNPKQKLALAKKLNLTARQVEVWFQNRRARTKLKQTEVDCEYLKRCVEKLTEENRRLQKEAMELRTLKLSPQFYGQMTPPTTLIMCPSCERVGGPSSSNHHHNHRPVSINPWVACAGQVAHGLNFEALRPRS

The experiment covers variants of B1. As to conditions: with hat2_arath HAT2, P46601.
Take N849F: the “effect of a mutation on the interaction” value is recorded as “disrupting interaction strength”.

For the origin of these results see IntAct's records for PubMed 24302889.
